tested on: Escherichia coli TOP10; experiment: shrunken log2 fold change of peptide-encoding DNA abundance (4.5 h post-induction vs induction); higher = less antimicrobial activity (less host growth inhibition); details: time post-induction: 4.5 h; library: site-saturation at positions 5, 18, 19, 20
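Also: peptides expressed intracellularly from a pBAD plasmid library in pooled LB shake-flask culture, induced with 0.3% L-arabinose, DNA abundance read by NGS, three biological replicates, DESeq2 with apeglm shrinkage.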

Sequence	shrunken log2 fold change
RRIRFRPPRLPRPRPRPCWNPRP	0.151
RRIRARPPRLPRPRPRPYQGPRP	-0.135
RRIRERPPRLPRPRPRPLVIPRP	-0.169
RRIRVRPPRLPRPRPRPKDNPRP	-0.438
RRIRVRPPRLPRPRPRPEGFPRP	0.0396
RRIRPRPPRLPRPRPRPTPGPRP	0.533
RRIRLRPPRLPRPRPRPITIPRP	0.0213
RRIRIRPPRLPRPRPRPHQSPRP	-0.406
RRIRHRPPRLPRPRPRPYDGPRP	-0.00992
RRIRLRPPRLPRPRPRPWWDPRP	-0.305
RRIRPRPPRLPRPRPRPHVMPRP	-0.0285
RRIRCRPPRLPRPRPRPGPEPRP	0.473
RRIRARPPRLPRPRPRPPALPRP	0.415
RRIRCRPPRLPRPRPRPMNEPRP	-0.307
RRIRPRPPRLPRPRPRPEISPRP	-0.00759
RRIRHRPPRLPRPRPRPTCRPRP	-0.232
RRIRRRPPRLPRPRPRPTDCPRP	0.0967
RRIRARPPRLPRPRPRPNSAPRP	0.00853
RRIRFRPPRLPRPRPRPPPEPRP	1.28
RRIRGRPPRLPRPRPRPFMRPRP	0.567
RRIRNRPPRLPRPRPRPGALPRP	0.0726
RRIRFRPPRLPRPRPRPIGWPRP	-0.0252
RRIRDRPPRLPRPRPRPRCTPRP	-0.054
RRIRIRPPRLPRPRPRPVETPRP	0.156
RRIRIRPPRLPRPRPRPYQIPRP	-0.273

Sequence	shrunken log2 fold change
RRIRIRPPRLPRPRPRPKMAPRP	-0.179
RRIRNRPPRLPRPRPRPNGAPRP	-0.0902
RRIRRRPPRLPRPRPRPRFRPRP	0.455
RRIRVRPPRLPRPRPRPTDVPRP	0.0418
RRIRNRPPRLPRPRPRPSHTPRP	-0.412
RRIRWRPPRLPRPRPRPEHHPRP	-0.0625
RRIRGRPPRLPRPRPRPIRVPRP	-0.189
RRIRIRPPRLPRPRPRPHTAPRP	0.055
RRIRERPPRLPRPRPRPIFQPRP	-0.00561
RRIRMRPPRLPRPRPRPQTHPRP	0.318
RRIRDRPPRLPRPRPRPKYWPRP	-0.147
RRIRIRPPRLPRPRPRPHDFPRP	0.0334
RRIRWRPPRLPRPRPRPEWAPRP	0.497
RRIRPRPPRLPRPRPRPERQPRP	0.153
RRIRMRPPRLPRPRPRPAKFPRP	0.0548
RRIRWRPPRLPRPRPRPEGSPRP	0.754
RRIRSRPPRLPRPRPRPTVLPRP	0.0356
RRIRYRPPRLPRPRPRPPMPPRP	0.0328
RRIRPRPPRLPRPRPRPFHCPRP	-0.297
RRIRFRPPRLPRPRPRPRNYPRP	-0.236
RRIRCRPPRLPRPRPRPEHHPRP	-0.114
RRIRMRPPRLPRPRPRPCCAPRP	0.78
RRIRNRPPRLPRPRPRPACAPRP	0.3
RRIRWRPPRLPRPRPRPKEHPRP	0.126
RRIRDRPPRLPRPRPRPNRSPRP	0.0428

Sequence	shrunken log2 fold change
RRIRIRPPRLPRPRPRPCVTPRP	-0.22
RRIRMRPPRLPRPRPRPWDQPRP	0.0532
RRIRCRPPRLPRPRPRPGGMPRP	0.215
RRIRERPPRLPRPRPRPIVMPRP	-0.86
RRIRMRPPRLPRPRPRPYAWPRP	-0.107
RRIRPRPPRLPRPRPRPQAIPRP	0.186
RRIRERPPRLPRPRPRPSDFPRP	-0.149
RRIRKRPPRLPRPRPRPRETPRP	0.0512
RRIRERPPRLPRPRPRPSFKPRP	-0.401
RRIRKRPPRLPRPRPRPNMMPRP	0.172
RRIRERPPRLPRPRPRPHGRPRP	0.0279
RRIRHRPPRLPRPRPRPASCPRP	-0.5
RRIRFRPPRLPRPRPRPMCGPRP	-0.164
RRIRKRPPRLPRPRPRPLPKPRP	0.54
RRIRRRPPRLPRPRPRPAPWPRP	0.626
RRIRCRPPRLPRPRPRPSLIPRP	-0.286
RRIRPRPPRLPRPRPRPDRAPRP	0.622
RRIRQRPPRLPRPRPRPMQPPRP	0.0113
RRIRDRPPRLPRPRPRPTCFPRP	0.0704
RRIRSRPPRLPRPRPRPEFFPRP	-0.0464
RRIRFRPPRLPRPRPRPVSWPRP	0.44
RRIRGRPPRLPRPRPRPCYLPRP	-0.177
RRIRGRPPRLPRPRPRPDWGPRP	0.242
RRIRKRPPRLPRPRPRPQWPPRP	0.124
RRIRDRPPRLPRPRPRPYSEPRP	-0.0337
